Test results from patent US20250304650A1.
Changes are numbered by the printed parent chain. Numbers in names are those of the source. Where “and” joins values, the source holds several entries; their conditions need not be identical. Identical values can stand only once.

B1: anti-NGF feline IgG1a, Fc variant T286E, S428R (antibody, part only; not given: anti-NGF variable domains, not shown: another chain or arm of the molecule; small tags and cut ends)
Fc: PPEMLGGPSIFIFPPKPKDTLSISRTPEVTCLVVDLGPDDSDVQITWFVDNTQVYEAKTSPREEQFNSTYRVVSVLPILHQDWLKGKEFKCKVNSKSLPSPIERTISKAKGQPHEPQVYVLPPAQEELSRNKVSVTCLIKSFHPPDIAVEWEITGQPEPENNYRTTPPQLDSDGTYFVYSKLSVDRSHWQRGNTYTCSVRHEALHSHHTQKSLTQSPGK
B2: anti-NGF feline IgG1a, Fc variant S252Y, Q311K (antibody, part only; not given: anti-NGF variable domains, light chain, not shown: another chain or arm of the molecule; small tags and cut ends)
Fc: B1 Fc with S22Y, E56T, Q81K, R200S
B3: anti-NGF feline IgG1a, Fc variant S434Y, S426L (antibody, part only; not given: anti-NGF variable domains, light chain, not shown: another chain or arm of the molecule; small tags and cut ends)
Fc: B1 Fc with E56T, S198L, R200S, S206Y
B4: feline IgG1a Fc variant S252W (CH2-CH3) with SASA tag (Fc fusion, part only; not given: SASA tag, not shown: another chain or arm of the molecule; small tags and cut ends)
Fc: B1 Fc with S22W, E56T, R200S
B5: feline IgG1a Fc variant S434F (CH2-CH3) with SASA tag (Fc fusion, part only; not given: SASA tag, not shown: another chain or arm of the molecule; small tags and cut ends)
Fc: B1 Fc with E56T, R200S, S206F
B6: feline IgG1a Fc variant S428M (CH2-CH3) with SASA tag (Fc fusion, part only; not given: SASA tag, not shown: another chain or arm of the molecule; small tags and cut ends)
Fc: B1 Fc with E56T, R200M
B7: feline IgG1a Fc variant S252F (CH2-CH3) with SASA tag (Fc fusion, part only; not given: SASA tag, not shown: another chain or arm of the molecule; small tags and cut ends)
Fc: B1 Fc with S22F, E56T, R200S
B8: feline IgG1a Fc variant S428L (CH2-CH3) with SASA tag (Fc fusion, part only; not given: SASA tag, not shown: another chain or arm of the molecule; small tags and cut ends)
Fc: B1 Fc with E56T, R200L
B9: feline IgG1a Fc variant S434W (CH2-CH3) with SASA tag (Fc fusion, part only; not given: SASA tag, not shown: another chain or arm of the molecule; small tags and cut ends)
Fc: B1 Fc with E56T, R200S, S206W
B10: wild-type feline IgG1a Fc (CH2 and CH3 domains) with SASA tag (Fc fusion, part only; not given: SASA tag, not shown: another chain or arm of the molecule; small tags and cut ends)
Fc: B1 Fc with E56T, R200S
B11: feline IgG1a Fc variant S428Y (CH2-CH3) with SASA tag (Fc fusion, part only; not given: SASA tag, not shown: another chain or arm of the molecule; small tags and cut ends)
Fc: B1 Fc with E56T, R200Y
B12: feline IgG1a Fc variant S434H (CH2-CH3) with SASA tag (Fc fusion, part only; not given: SASA tag, not shown: another chain or arm of the molecule; small tags and cut ends)
Fc: B1 Fc with E56T, R200S, S206H
B13: feline IgG1a Fc variant S252Y (CH2-CH3) with SASA tag (Fc fusion, part only; not given: SASA tag, not shown: another chain or arm of the molecule; small tags and cut ends)
Fc: B1 Fc with S22Y, E56T, R200S
B14: anti-NGF feline IgG1a, Fc variant S428H (antibody, part only; not given: anti-NGF variable domains, light chain, not shown: another chain or arm of the molecule; small tags and cut ends)
Fc: B1 Fc with E56T, R200H
B15: anti-NGF feline IgG1a, Fc variant S428H, T289H (antibody, part only; not given: anti-NGF variable domains, light chain, not shown: another chain or arm of the molecule; small tags and cut ends)
Fc: B1 Fc with E56T, T59H, R200H
B16: anti-NGF feline IgG1a, Fc variant R334D, T437L (antibody, part only; not given: anti-NGF variable domains, light chain, not shown: another chain or arm of the molecule; small tags and cut ends)
Fc: B1 Fc with E56T, R104D, R200S, T209L
B17: anti-NGF feline IgG1a, Fc variant N389c-R (antibody, part only; not given: anti-NGF variable domains, not shown: another chain or arm of the molecule; small tags and cut ends)
Fc: B1 Fc with E56T, N161R, R200S
B18: anti-NGF feline IgG1a, Fc variant S428Y, S254R (antibody, part only; not given: Anti-NGF variable domains, not shown: another chain or arm of the molecule; small tags and cut ends)
Fc: B1 Fc with S24R, E56T, R200Y
B19: anti-NGF feline IgG1a, Fc variant I377Y (antibody, part only; not given: anti-NGF variable domains, not shown: another chain or arm of the molecule; small tags and cut ends)
Fc: B1 Fc with E56T, I147Y, R200S
B20: anti-NGF feline IgG1a, Fc variant T286E, S428H (antibody, part only; not given: Anti-NGF variable domains, not shown: another chain or arm of the molecule; small tags and cut ends)
Fc: B1 Fc with R200H
B21: anti-NGF feline IgG1a, Fc variant R334D, S428R (antibody, part only; not given: anti-NGF variable domains, light chain, not shown: another chain or arm of the molecule; small tags and cut ends)
Fc: B1 Fc with E56T, R104D
B22: anti-NGF feline IgG1a, Fc variant S252Y, Q311L (antibody, part only; not given: anti-NGF variable domains, not shown: another chain or arm of the molecule; small tags and cut ends)
Fc: B1 Fc with S22Y, E56T, Q81L, R200S
B23: anti-NGF feline IgG1a, Fc variant Q311L (antibody, part only; not given: anti-NGF variable domains, light chain, not shown: another chain or arm of the molecule; small tags and cut ends)
Fc: B1 Fc with E56T, Q81L, R200S
B24: anti-NGF feline IgG1a, Fc variant S252Y (antibody, part only; not given: Anti-NGF variable domains, not shown: another chain or arm of the molecule; small tags and cut ends)
Fc: B1 Fc with S22Y, E56T, R200S
B25: anti-NGF feline IgG1a, Fc variant S434Y, S254R (antibody, part only; not given: anti-NGF variable domains, light chain, not shown: another chain or arm of the molecule; small tags and cut ends)
Fc: B1 Fc with S24R, E56T, R200S, S206Y
B26: anti-NGF feline IgG1a, Fc variant L309Y (antibody, part only; not given: anti-NGF variable domains, light chain, not shown: another chain or arm of the molecule; small tags and cut ends)
Fc: B1 Fc with E56T, L79Y, R200S
B27: anti-NGF feline IgG1a, Fc variant R334D, R301L (antibody, part only; not given: anti-NGF variable domains, light chain, not shown: another chain or arm of the molecule; small tags and cut ends)
Fc: B1 Fc with E56T, R71L, R104D, R200S
B28: anti-NGF feline IgG1a, Fc variant E380T (antibody, part only; not given: anti-NGF variable domains, not shown: another chain or arm of the molecule; small tags and cut ends)
Fc: B1 Fc with E56T, E150T, R200S
B29: anti-NGF feline IgG1a, Fc variant S426L, S428H (antibody, part only; not given: anti-NGF variable domains, light chain, not shown: another chain or arm of the molecule; small tags and cut ends)
Fc: B1 Fc with E56T, S198L, R200H
B30: anti-NGF feline IgG1a, Fc variant S434Y (antibody, part only; not given: Anti-NGF variable domains, not shown: another chain or arm of the molecule; small tags and cut ends)
Fc: B1 Fc with E56T, R200S, S206Y
B31: anti-NGF feline IgG1a, Fc variant S252Y, Q311R (antibody, part only; not given: anti-NGF variable domains, not shown: another chain or arm of the molecule; small tags and cut ends)
Fc: B1 Fc with S22Y, E56T, Q81R, R200S
B32: anti-NGF feline IgG1a, Fc variant Q347L (antibody, part only; not given: Anti-NGF variable domains, not shown: another chain or arm of the molecule; small tags and cut ends)
Fc: B1 Fc with E56T, Q117L, R200S
B33: anti-NGF feline IgG1a, Fc variant S426L, T289H (antibody, part only; not given: Anti-NGF variable domains, not shown: another chain or arm of the molecule; small tags and cut ends)
Fc: B1 Fc with E56T, T59H, S198L, R200S
B34: anti-NGF feline IgG1a, Fc variant R334D (antibody, part only; not given: anti-NGF variable domains, light chain, not shown: another chain or arm of the molecule; small tags and cut ends)
Fc: B1 Fc with E56T, R104D, R200S
B35: anti-NGF feline IgG1a, Fc variant K326D (antibody, part only; not given: anti-NGF variable domains, not shown: another chain or arm of the molecule; small tags and cut ends)
Fc: B1 Fc with E56T, K96D, R200S
B36: anti-NGF feline IgG1a, Fc variant Q311V (antibody, part only; not given: anti-NGF variable domains, light chain, not shown: another chain or arm of the molecule; small tags and cut ends)
Fc: B1 Fc with E56T, Q81V, R200S
B37: anti-NGF feline IgG1a, Fc variant S426H (antibody, part only; not given: anti-NGF variable domains, not shown: another chain or arm of the molecule; small tags and cut ends)
Fc: B1 Fc with E56T, S198H, R200S

Target: feline FcRn (FCN-F82W3, Acrobiosystems) (feline)
Experiment: SPR Carterra, IgG coupled, pH 7.4

Binder | Kd [nM] | koff [s⁻¹] | kon [M⁻¹ s⁻¹]
B1 | 12.3 | 0.113 | 9.17e+06
B2 | 46.9 | 0.112 | 2.39e+06
B3 | 185 | 0.118 | 636000

Target: feline FcRn (IgG receptor FcRn large subunit p51 with feline beta-2-microglobulin) (feline)
Experiment: SPR Biacore 8K, Fc captured by SASA tag on BSA, pH 6.0

Binder | Kd | koff | kon
B4 | 23.5 nM and 23.3 nM | 0.00538 s⁻¹ and 0.00545 s⁻¹ | 228000 M⁻¹ s⁻¹ and 234000 M⁻¹ s⁻¹
B5 | 41.7 nM and 43.3 nM | 0.0158 s⁻¹ and 0.0161 s⁻¹ | 378000 M⁻¹ s⁻¹ and 371000 M⁻¹ s⁻¹
B6 | 603 nM | 0.1 s⁻¹ | 166000 M⁻¹ s⁻¹
B7 | 470 nM and 492 nM | 0.0957 s⁻¹ and 0.101 s⁻¹ | 203000 M⁻¹ s⁻¹ and 205000 M⁻¹ s⁻¹
B8 | 485 nM and 763 nM | 0.0788 s⁻¹ and 0.0803 s⁻¹ | 162000 M⁻¹ s⁻¹ and 105000 M⁻¹ s⁻¹
B9 | 55.6 nM and 50.2 nM | 0.0175 s⁻¹ and 0.0202 s⁻¹ | 314000 M⁻¹ s⁻¹ and 402000 M⁻¹ s⁻¹
B10 | 1190 nM and 1640 nM | 0.374 s⁻¹ and 0.195 s⁻¹ | 314000 M⁻¹ s⁻¹ and 119000 M⁻¹ s⁻¹
B11 | 528 nM and 565 nM | 0.103 s⁻¹ and 0.105 s⁻¹ | 195000 M⁻¹ s⁻¹ and 187000 M⁻¹ s⁻¹
B12 | 316 nM and 444 nM | 0.0761 s⁻¹ and 0.0888 s⁻¹ | 241000 M⁻¹ s⁻¹ and 200000 M⁻¹ s⁻¹
B13 | 103 nM and 102 nM | 0.0265 s⁻¹ and 0.0263 s⁻¹ | 257000 M⁻¹ s⁻¹ and 258000 M⁻¹ s⁻¹

Target: feline FcRn (FCN-F82W3, Acrobiosystems) (feline)
Experiment: SPR Carterra, IgG coupled, pH 6.0

Binder | Kd [nM] | koff [s⁻¹] | kon [M⁻¹ s⁻¹]
B14 | 159 | 0.0618 | 389000
B15 | 149 | 0.0526 | 352000
B16 | 95.7 | 0.0437 | 457000
B17 | 188 | 0.0944 | 502000
B18 | 48.1 | 0.0265 | 552000
B19 | 61.4 | 0.0514 | 837000
B20 | 47.3 | 0.0283 | 598000
B1 | 6.9 | 0.00648 | 939000
B21 | 81.7 | 0.0493 | 603000
B22 | 7 | 0.00516 | 740000
B23 | 88.2 | 0.0499 | 565000
B24 | 9.8 | 0.0095 | 974000
B25 | 2.1 | 0.00568 | 2.75e+06
B2 | 5.6 | 0.00779 | 1.39e+06
B26 | 196 | 0.118 | 600000
B27 | 90.7 | 0.0417 | 460000
B28 | 116 | 0.062 | 533000
B29 | 100 | 0.0445 | 445000
B30 | 5.2 | 0.00629 | 1.22e+06
B31 | 6.9 | 0.0064 | 926000
B32 | 157 | 0.0853 | 544000
B3 | 3 | 0.0044 | 1.48e+06
B33 | 115 | 0.0622 | 542000
B34 | 133 | 0.0561 | 423000
B35 | 136 | 0.0584 | 428000
B36 | 80.4 | 0.0505 | 629000
B37 | 171 | 0.0602 | 352000
